Biological target: T1, full length rat SD (Shen-Dan) protein expressed from pSDf in HEK293T cells (rat, UniProt Q2VWP9 24-1193)
T1 construct: Full-length rat SD amplified from E10.5 rat cDNA and ligated into pEF1/Myc-His (pSDf); also called SD-expressing cells
T1 sequence: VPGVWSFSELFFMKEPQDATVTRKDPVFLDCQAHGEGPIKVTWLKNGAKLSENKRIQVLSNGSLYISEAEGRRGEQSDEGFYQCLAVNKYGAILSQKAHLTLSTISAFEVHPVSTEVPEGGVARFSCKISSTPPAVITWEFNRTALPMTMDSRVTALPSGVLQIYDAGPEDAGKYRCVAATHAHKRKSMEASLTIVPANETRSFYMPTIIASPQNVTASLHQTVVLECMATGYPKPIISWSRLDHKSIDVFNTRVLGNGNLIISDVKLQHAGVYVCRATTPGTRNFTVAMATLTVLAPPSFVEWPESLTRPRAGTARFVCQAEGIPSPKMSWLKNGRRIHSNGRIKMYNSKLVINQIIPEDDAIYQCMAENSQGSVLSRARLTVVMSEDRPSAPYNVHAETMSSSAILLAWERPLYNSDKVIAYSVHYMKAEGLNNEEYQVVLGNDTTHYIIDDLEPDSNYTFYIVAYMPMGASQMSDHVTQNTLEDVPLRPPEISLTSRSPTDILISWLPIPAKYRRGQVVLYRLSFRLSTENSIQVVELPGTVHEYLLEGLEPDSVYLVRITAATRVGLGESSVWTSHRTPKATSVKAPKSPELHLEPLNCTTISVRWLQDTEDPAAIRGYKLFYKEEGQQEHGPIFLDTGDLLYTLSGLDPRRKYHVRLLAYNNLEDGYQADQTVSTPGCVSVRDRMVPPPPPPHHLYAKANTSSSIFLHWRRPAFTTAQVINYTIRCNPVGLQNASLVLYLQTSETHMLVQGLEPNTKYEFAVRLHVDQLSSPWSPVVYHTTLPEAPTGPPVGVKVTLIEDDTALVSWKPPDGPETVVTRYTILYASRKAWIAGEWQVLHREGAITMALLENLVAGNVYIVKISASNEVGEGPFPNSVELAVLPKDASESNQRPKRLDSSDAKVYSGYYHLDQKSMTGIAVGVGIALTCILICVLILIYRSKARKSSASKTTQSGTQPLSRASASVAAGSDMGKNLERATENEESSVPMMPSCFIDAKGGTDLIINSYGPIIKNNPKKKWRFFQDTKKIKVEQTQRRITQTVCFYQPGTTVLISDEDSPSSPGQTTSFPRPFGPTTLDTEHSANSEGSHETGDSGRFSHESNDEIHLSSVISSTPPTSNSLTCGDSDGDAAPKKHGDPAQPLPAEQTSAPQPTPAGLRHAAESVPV
Experiment: in situ binding assay, conditioned medium on pSDf-transfected HEK293T cells, immunofluorescence (anti-myc 9E10)
Source text: HEDJ/ERdj3 binds to the SD extracellular domain. a, Schematic representation of eight HEDJ/ERdj3 clones identified by yeast two-hybrid screening and their interaction with the SD extracellular domain, shown as activity in an X-gal assay. b, Various sd deletion mutants were examined for their ability to interact with C-terminal HEDJ/ERdj3. c, HEK293T cells were transiently transfected with pHEDJ or a control vector. Three days after transfection, conditioned medium (CM) and total cell lysate (TCL) were subjected to Western blotting to detect HEDJ/ERdj3 using anti-myc antibody. d, Quantification of HEDJ/ERdj3 binding to SD-expressing cells. HEK293T cells were transiently transfected with pSDf or control vector. SD expression was detected by W4 antiserum. Binding of HEDJ/ERdj3 on the cells was detected by anti-myc mAb. Cell nuclei were visualized by DAPI. […] Data were normalized relative to fluorescence intensity of the cells transfected with pSDf in the presence of control CM. Results are shown as means±s.e.m., from a total of 50 cells. (*, p<0.001; by student's t-test).
HEK293T cells were transfected with pSDf using FuGENE 6 (Roche). […] The fluorescence signal was quantified using ImageJ software (NIH, Bethesda, Md., USA).

binding result: binds
B1: C-terminal His-myc-tagged HEDJ/ERdj3 protein secreted from pHEDJ-transfected HEK293T cells (ligand, mouse, UniProt Q99KV1 23-358, looked up)
chain: GRDFYKILGVPRSASIKDIKKAYRKLALQLHPDRNPDDPQAQEKFQDLGAAYEVLSDSEKRKQYDTYGEEGLKDGHQSSHGDIFSHFFGDFGFMFGGTPRQQDRNIPRGSDIIVDLEVTLEEVYAGNFVEVVRNKPVARQAPGKRKCNCRQEMRTTQLGPGRFQMTQEVVCDECPNVKLVNEERTLEVEIEPGVRDGMEYPFIGEGEPHVDGEPGDLRFRIKVVKHRIFERRGDDLYTNVTVSLVEALVGFEMDITHLDGHKVHISRDKITRPGAKLWKKGEGLPNFDNNNIKGSLIITFDVDFPKEQLTEEAKEGIKQLLKQGPVQKVYNGLQGY
notes: mature; also called secreted HEDJ/ERdj3; not shown: C-terminal His-myc tag from pEF1/Myc-His
